In patent US20250026787A1, “PEPTIDES AND METHODS FOR REDUCING SKIN PIGMENTATION” (Glo Pharma, Inc., priority 2021, published 2025):
Square brackets hold non-standard residues; d marks the D form. Ends that are not written are not given here.

Target: Human recombinant melanocortin MC1 receptor (human) (UniProt Q01726)
Assay: radioligand competition, displacement of [125I]NDP-alpha-MSH from human MC1R (CHO-K1), Example 7

Sequence of Human recombinant melanocortin MC1 receptor (human) (Q01726 whole entry): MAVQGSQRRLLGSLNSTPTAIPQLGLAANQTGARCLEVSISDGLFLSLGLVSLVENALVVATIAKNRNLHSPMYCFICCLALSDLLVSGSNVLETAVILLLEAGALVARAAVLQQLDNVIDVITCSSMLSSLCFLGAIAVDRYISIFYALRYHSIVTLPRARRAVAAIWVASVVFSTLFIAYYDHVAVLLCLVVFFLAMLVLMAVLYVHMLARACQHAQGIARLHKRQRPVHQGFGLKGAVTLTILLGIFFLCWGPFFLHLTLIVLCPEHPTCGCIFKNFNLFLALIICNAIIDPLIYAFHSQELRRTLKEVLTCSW

Binder | IC50
MV[dF][dR][dW]FKPV-NH2 (N-terminus assumed; SMILES CSCC[C@H](N)C(=O)N[C@H](C(=O)N[C@H](Cc1ccccc1)C(=O)N[C@H](CCCNC(=N)N)C(=O)N[C@H](Cc1c[nH]c2ccccc12)C(=O)N[C@@H](Cc1ccccc1)C(=O)N[C@@H](CCCCN)C(=O)N1CCC[C@H]1C(=O)N[C@H](C(N)=O)C(C)C)C(C)C) [SEQ ID NO: 35] | > 500 nM
A[dL][dF]R[dW]FKPV-NH2 (N-terminus assumed; SMILES CC(C)C[C@@H](NC(=O)[C@H](C)N)C(=O)N[C@H](Cc1ccccc1)C(=O)N[C@@H](CCCNC(=N)N)C(=O)N[C@H](Cc1c[nH]c2ccccc12)C(=O)N[C@@H](Cc1ccccc1)C(=O)N[C@@H](CCCCN)C(=O)N1CCC[C@H]1C(=O)N[C@H](C(N)=O)C(C)C) [SEQ ID NO: 40] | > 500 nM
